In publication PMC9063846 (Acta Crystallographica. Section D, Structural Biology, 2022):

Biological target: the molecule itself
Assay: SEC-MALS; SEC-MALLS; Superdex 200 Increase 10/300 GL; 100 µl injected at 2 mg/ml; 20 mM HEPES, 200 mM NaCl pH 7.4; room temperature (20 ± 2 °C)

B1: Phocaeicola vulgatus sialic acid 9-O-acetylesterase (PvSAE), His6-tagged (enzyme)
chain: ERKYSTFYEQRATLFEELPVTSKDIIFLGNSITNGCEWAELFQNKNVKNRGISGDICMGVYDRLDPIVKGKPAKIFLLIGINDVSRGTSADKIISEISMIVRKIKQESPKTKLYLQSVLPVNDCYGMFNGHTSRWQVVKQINDLLEPLAVKEGVAYIDLYSHFVEKETGKMNPVYTNDGLHLLGKGYLLWRDIVKPYVDQK
notes: Sialic acid 9-O-acetylesterase PvSAE (BVU4141) of Phocaeicola vulgatus, GenBank ABR41743.1, without its signal peptide; the text says that the signal peptide is predicted to be cut between residues 19 and 20; Homodimer by SEC-MALLS and in both crystal forms; also called His6-PvSAE; P. vulgatus 9-O-acetylsialic acid esterase
  stoichiometry N: 2
